Publication PMC3149894 (Journal of molecular biology, 2010)

B1: knobΔTAYT protein containing an MA(H)6 tag at the N-terminus (Ad5 fiber knob, TAYT deleted) (domain or fragment, human adenovirus serotype 5, UniProt P11818 387-581, looked up)
chain: GAITVGNKNNDKLTLWTTPAPSPNCRLNAEKDAKLTLVLTKCGSQILATVSVLAVKGSLAPISGTVQSAHLIIRFDENGVLLNNSFLDPEYWNFRNGDLTEGNAVGFMPNLSAYPKSHGKTAKSNIVSQVYLNGDKTKPVTLTITLNGTQETGDTTPSAYSMSFSWDWSGHNYINEIFATSSYTFSYIAQE
B2: knobΔTAYT version with an N-terminal MA(H)6 tag followed by an AviTag (biotinylated) (domain or fragment, human adenovirus serotype 5, UniProt P11818 387-581, looked up)
chain: B1 chain
modifications: biotin (biotinylated in the host by protein biotin ligase from pBirA)
B3: biotinylated knobΔTAYT protein carrying an N-terminal MRGS(H)6 tag followed by an AviTag (domain or fragment, human adenovirus serotype 5, UniProt P11818 387-581, looked up)
chain: B1 chain
modifications: biotin (biotinylated in the host by protein biotin ligase from pBirA)

Biological target: the molecule itself
Assay: SEC-MALS + other: SDS-PAGE

Protein	stoichiometry N
B1	3
B2	3
B3	3
